The target in this experiment is wild-type AC fused to GFP (AC-GFP), encoded by plasmid pAC0-Gfp (GFP: Aequorea victoria (variant not …, UniProt P42212 = GFP)). Put plainly: two-hybrid. To be noted: partners not purified.

B1: CaM fused to the V9A nanobody at its N-terminus and a tetra-cysteine tag at its C-terminus (CaM-V9A), encoded by plasmid pTCam-V9A (VHH)
VHH: DVQLQESGGGSVQAGGSLRLSCAASGDTFSSYSMAWFRQAPGKECELVSNILRDGTTTYAGSVKGRFTISRDDAKNTVYLQMVNLKSEDTARYYCAADSGTQLGYVGAVGLSCLDYVMDYWGKGTQVTVSS
notes: source: E. coli DHM1, expressed in cells from plasmid pTCam-V9A (high expression); not shown: tetra-cysteine tag, C-terminal, kept
Turning to B1, the “cAMP” value was more than 250 nmol/mg and the “ß gal (Rel. Units)” value was determined as 107 Rel. Units.

The values are drawn from PMC13334617 (Advanced Science, 2026).
